Experimental findings from paper PMC9612331 are described below.

Experiment [1] addresses Aleutian mink disease virus (AMDV) capsid protein VP2 (Aleutian mink disease virus (AMDV)). The experiment can be described thus: cryo-EM structure.
For experiment [2], the target named is Human parvovirus 4 (PARV4) capsid protein VP2 (human parvovirus 4 (PARV4)). Nature of the experiment: cryo-EM structure.

“Aleutian mink disease virus (AMDV) capsid protein VP2 (natural protein)”: in experiment [1], the stoichiometry N (usually a count of units in the complex or per binding partner) worked out at 60. As for “Human parvovirus 4 (PARV4) capsid protein VP2 (natural protein)”, the stoichiometry N in experiment [2] is 60.
